Assay [1] concerns the target T1, SAV-CD99 complex (biotinylated CD99 ECD tetramerized on streptavidin) (human, UniProt P22629 37-163 (Streptomyces avidinii entry), limits assumed, DyLight650 label; biotin on the AviTag).
T1 construct: also called tetramerized CD99; tetramerized SUMO-CD99; not shown: N-terminal 6xHis tag, AviTag, TEV site and fusion partner
The assay is described as follows: yeast display binding signal (FIG. 5E).

The target in assay [2] is T2, recombinant CD99 extracellular domain (fusion partner not given) (human, UniProt P14209 23-122).
T2 construct: also called CD99 ECD; human CD99; not shown: N-terminal 6xHis tag, AviTag, TEV site and a fusion partner (SUMO or GFP)
T2 sequence: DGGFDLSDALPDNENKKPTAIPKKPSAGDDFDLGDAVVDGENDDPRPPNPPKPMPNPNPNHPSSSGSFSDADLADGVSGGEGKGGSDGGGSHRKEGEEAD
The assay is described as follows: Western blot of recombinant CD99. (Immunoblotting shows a protein as a band on a membrane.)

The target in assay [3] is T3, CD99L2 extracellular domain (human, UniProt Q8TCZ2 26-185).
T3 construct: extracellular domain
T3 sequence (looked up): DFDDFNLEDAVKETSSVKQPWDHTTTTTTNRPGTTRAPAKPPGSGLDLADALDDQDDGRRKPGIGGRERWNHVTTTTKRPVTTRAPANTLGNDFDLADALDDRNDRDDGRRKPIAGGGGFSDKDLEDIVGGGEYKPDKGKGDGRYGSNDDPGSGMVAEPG
The assay is described as follows: binding of scFv-Fc to immobilized homolog ECDs (FIG. 1B).

Assay [4] deals with T4, Glycoprotein Xg extracellular domain (human, UniProt P55808 22-142).
T4 construct: extracellular domain
T4 sequence (looked up): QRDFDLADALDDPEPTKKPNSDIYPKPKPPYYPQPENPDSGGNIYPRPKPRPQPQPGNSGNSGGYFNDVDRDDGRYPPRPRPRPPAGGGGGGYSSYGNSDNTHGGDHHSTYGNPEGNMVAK
Described as above.

Assay [5] has as its target T5, CD99 endogenously expressed on cells (Jurkat, KOPT-K1) (human, UniProt P14209 23-185, O-linked glycosylation (natural, on cells)).
T5 construct: also called endogenously expressed CD99; CD99 on cells
T5 sequence: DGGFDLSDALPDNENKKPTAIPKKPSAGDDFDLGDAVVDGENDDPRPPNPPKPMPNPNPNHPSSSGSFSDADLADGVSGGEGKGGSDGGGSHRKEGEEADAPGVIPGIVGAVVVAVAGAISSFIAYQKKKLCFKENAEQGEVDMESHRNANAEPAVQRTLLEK
The assay is described as follows: flow cytometry titration on Jurkat cells (FIG. 1G).
Procedure: The cells were washed three times, and resuspended in 100 μL of PBS/2% FBS and analyzed on a HyperCyt screener (Satorius). […] Gating for flow cytometry consisted of FSC vs SSC cell gating, followed by single cell gating in FSC-H or FSC-A vs FSC-W to remove aggregates. For all samples cells were gated for Propidium Iodide negative. T-ALL patient samples cells were then gated for human CD45 positive followed by CD34 negative, and finally CD7 positive. For healthy donor PBMC samples cells were gated for human CD45 positive followed by CD34 positive and CD34 negative. Data collection performed on ZE5 Cell Analyzer (BioRad) or Guava easyCyte (Luminex) flow cytometers. Signals reported are median fluorescence intensities.

Assay [6] addresses T6, mouse CD99 (mouse, UniProt Q8VCN6 29-137, limits assumed).
T6 sequence (looked up): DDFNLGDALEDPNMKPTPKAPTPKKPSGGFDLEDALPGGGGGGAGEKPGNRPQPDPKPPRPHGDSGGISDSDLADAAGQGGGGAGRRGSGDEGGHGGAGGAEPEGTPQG
The assay is described as follows: binding of scFv-Fc to CD99 from different species (FIG. 1C).

Assay [7] addresses T5, CD99 endogenously expressed on cells …. The assay can be described thus: flow cytometry on Jurkat cells (FIG. 1E).
Procedure: (§1) The cells were washed three times, and resuspended in 100 μL of PBS/2% FBS and analyzed on a HyperCyt screener (Satorius). […] Gating for flow cytometry consisted of FSC vs SSC cell gating, followed by single cell gating in FSC-H or FSC-A vs FSC-W to remove aggregates. For all samples cells were gated for Propidium Iodide negative. […] Data collection performed on ZE5 Cell Analyzer (BioRad) or Guava easyCyte (Luminex) flow cytometers. Signals reported are median fluorescence intensities.
To assess if the antibodies bind to CD99 with posttranslational modifications, their binding to CD99 on cells was tested.
For assay [8] the target is unchanged. The assay is described as follows: cell-based or functional assay.
For assay [9] the target is unchanged. The assay can be described thus: flow cytometry titration on KOPT-K1 cells; apparent KD (FIG. 3B).
Procedure: as §1
To assess if enhanced cytotoxic effect is the consequence of enhanced binding to cells, binding of these antibodies was measured to KOPT-K1 cells (FIG. 3B).

T1 sequence (P22629 37-163 limits assumed, one chain of several): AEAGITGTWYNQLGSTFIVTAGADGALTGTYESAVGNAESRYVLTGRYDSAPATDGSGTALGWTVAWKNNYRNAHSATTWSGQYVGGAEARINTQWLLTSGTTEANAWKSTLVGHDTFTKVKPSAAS

B1: 10A1 with light chain D50 mutated to serine (yeast display format) (scFv, V domains shown)
VH: QVQLQQSGPVLVKPSQTLSLTCAISGDSISSDTTAWSWIRRSPSRGLEWLGWTYYRSKWFNYYAVSVKGRVTINPDTSKNQFSLQLSSVTPEDTAVYYCARGNGNGGMDVWGQGTTVTVSS
VL: SYVLTQPASASVSPGQTARITCSGDALPKQYAYWYQQKPGQAPVLVIFKSSERPSGVPERFSGSSSGTTVTLTISGAQAEDEADYYCQSVDNSGFYQVFGGGTQLTVL
notes: also called D50L to serine
Regarding B1, in [1], the binding result is reported as “no binding (tested: 100 nM SAV-CD99 complex)”.

B2: 10A1 with light chain D91 mutated to serine (yeast display format) (scFv, V domains shown)
VH: QVQLQQSGPVLVKPSQTLSLTCAISGDSISSDTTAWSWIRRSPSRGLEWLGWTYYRSKWFNYYAVSVKGRVTINPDTSKNQFSLQLSSVTPEDTAVYYCARGNGNGGMDVWGQGTTVTVSS
VL: SYVLTQPASASVSPGQTARITCSGDALPKQYAYWYQQKPGQAPVLVIFKDSERPSGVPERFSGSSSGTTVTLTISGAQAEDEADYYCQSVSNSGFYQVFGGGTQLTVL
notes: also called D91L to serine
With B2, the binding result in assay [1] was “no binding (tested: 100 nM SAV-CD99 complex)”.

B3: clone 10 in the scFv-Fc format (Fc fusion)
chain: QVQLQQSGPVLVKPSQTLSLTCAISGDSVSSDTTAWSWIRQSPSRGLEWLGWTYYRSKWFNYYAVSVKSRVTINPDTSKNQFSLQLSSVTPEDTAVYYCARGNGNGGMDVWGQGTTVTVSSGILGSGGGGSGGGGSGGGGSSYVLTQPPSVSVSPGQTARITCSGDALPKQYAYWYQQKPGQAPVLVIFKDSERPSGIPERFSGSSSGTTVTLTISGVQAEDEADYYCQSADNSGFYQVFGGGTQLTVLSGSSSSLEGCKPCICTVPEVSSVFIFPPKPKDVLTITLTPKVTCVVVDISKDDPEVQFSWFVDDVEVHTAQTQPREEQFNSTFRSVSELPIMHQDWLNGKEFKCRVNSAAFPAPIEKTISKTKGRPKAPQVYTIPPPKEQMAKDKVSLTCMITDFFPEDITVEWQWNGQPAENYKNTQPIMDTDGSYFVYSKLNVQKSNWEAGNTFTCSVLHEGLHNHHTEKSLSHSPGKGGGGLNDIFEAQKIEWHESRHHHHHH
notes: also called Clone 10 scFv-Fc antibody
Take B3: the binding result in [2] was “binds”; in assay [3] it was “no binding (tested: 600 nM Fv)”; in [4] it was “no binding (tested: 600 nM Fv)”.

B4: 10A1 in the scFv-Fc format (Fc fusion)
chain: QVQLQQSGPVLVKPSQTLSLTCAISGDSISSDTTAWSWIRRSPSRGLEWLGWTYYRSKWFNYYAVSVKGRVTINPDTSKNQFSLQLSSVTPEDTAVYYCARGNGNGGMDVWGQGTTVTVSSGILSGSSSSGSSSSGSSSSGYVLTQPASASVSPGQTARITCSGDALPKQYAYWYQQKPGQAPVLVIFKDSERPSGVPERFSGSSSGTTVTLTISGAQAEDEADYYCQSVDNSGFYQVFGGGTQLTVLSGSSSSLEGCKPCICTVPEVSSVFIFPPKPKDVLTITLTPKVTCVVVDISKDDPEVQFSWFVDDVEVHTAQTQPREEQFNSTFRSVSELPIMHQDWLNGKEFKCRVNSAAFPAPIEKTISKTKGRPKAPQVYTIPPPKEQMAKDKVSLTCMITDFFPEDITVEWQWNGQPAENYKNTQPIMDTDGSYFVYSKLNVQKSNWEAGNTFTCSVLHEGLHNHHTEKSLSHSPGKGGGGLNDIFEAQKIEWHESRHHHHHH
notes: Bivalent; also called 10A1 scFv-Fc
With B4, in assay [5], the “fold improvement of apparent KD over Clone 10” value stood at 14 fold.

B5: clone 22 in the scFv-Fc format (Fc fusion)
chain: QVQLQQSGPGLVKPSQTLSLTCAISGDSVSSNSAAWNWIRQSPSRGLEWLGRTYYRSKWYNDYAVSVKSRITINPDTSKNQFSLQLNSVTPEDTAVYYCARGSYGSGLVWGQGTTVTVSSGSASAPTGILGSGGGGSGGGGSGGGGSNFMLTQPHSVSESPGKTVTISCTGSSGSIASNYVQWYQQRPGSAPTTVIYEDDQRPSGVPDRFSGSLDTSSNSASLTISGLRPEDEADYYCQSYDNKDNVVFGGGTKVTVLSGSSSSLEGCKPCICTVPEVSSVFIFPPKPKDVLTITLTPKVTCVVVDISKDDPEVQFSWFVDDVEVHTAQTQPREEQFNSTFRSVSELPIMHQDWLNGKEFKCRVNSAAFPAPIEKTISKTKGRPKAPQVYTIPPPKEQMAKDKVSLTCMITDFFPEDITVEWQWNGQPAENYKNTQPIMDTDGSYFVYSKLNVQKSNWEAGNTFTCSVLHEGLHNHHTEKSLSHSPGKGGGGLNDIFEAQKIEWHESRHHHHHH
notes: The format mimics the bivalent IgG architecture
Take B5: the binding result in [6] is reported as “no binding (tested: 1 µM Fv)”; in [2], “binds”; in [3] it was “no binding (tested: 600 nM Fv)”; in [4] it was “no binding (tested: 600 nM Fv)”; in [7], “binds”.

B6: 10A1 IgG-E345R (antibody)
heavy: QVQLQQSGPVLVKPSQTLSLTCAISGDSISSDTTAWSWIRRSPSRGLEWLGWTYYRSKWFNYYAVSVKGRVTINPDTSKNQFSLQLSSVTPEDTAVYYCARGNGNGGMDVWGQGTTVTVSSASTKGPSVFPLAPSSKSTSGGTAALGCLVKDYFPEPVTVSWNSGALTSGVHTFPAVLQSSGLYSLSSVVTVPSSSLGTQTYICNVNHKPSNTKVDKKVEPKSCDKTHTCPPCPAPEAAGGPSVFLFPPKPKDTLMISRTPEVTCVVVDVSHEDPEVKFNWYVDGVEVHNAKTKPREEQYNSTYRVVSVLTVLHQDWLNGKEYKCKVSNKALGAPIEKTISKAKGQPRRPQVYTLPPSREEMTKNQVSLTCLVKGFYPSDIAVEWESNGQPENNYKTTPPVLDSDGSFFLYSKLTVDKSRWQQGNVFSCSVMHEALHNHYTQKSLSLSPGK
light: SYVLTQPASASVSPGQTARITCSGDALPKQYAYWYQQKPGQAPVLVIFKDSERPSGVPERFSGSSSGTTVTLTISGAQAEDEADYYCQSVDNSGFYQVFGGGTQLTVLRTVAAPSVFIFPPSDEQLKSGTASVVCLLNNFYPREAKVQWKVDNALQSGNSQESVTEQDSKDSTYSLSSTLTLSKADYEKHKVYACEVTHQGLSSPVTKSFNRGEC
notes: Valency of twelve as a hexamer; also called 10A1 E345R; 'inducible hexamer'
Turning to B6, the “IC50 of cytotoxicity (Annexin V, KOPT-K1 cells, 18 hours)” value in assay [8] came out at 299 nM Fv. In assay [9], the “fold higher KD than IgG-RGY, IgG-HCscFv and IgG” value is about 3 fold.

B7: 10A1 IgG-RGY (antibody)
heavy: QVQLQQSGPVLVKPSQTLSLTCAISGDSISSDTTAWSWIRRSPSRGLEWLGWTYYRSKWFNYYAVSVKGRVTINPDTSKNQFSLQLSSVTPEDTAVYYCARGNGNGGMDVWGQGTTVTVSSASTKGPSVFPLAPSSKSTSGGTAALGCLVKDYFPEPVTVSWNSGALTSGVHTFPAVLQSSGLYSLSSVVTVPSSSLGTQTYICNVNHKPSNTKVDKKVEPKSCDKTHTCPPCPAPEAAGGPSVFLFPPKPKDTLMISRTPEVTCVVVDVSHEDPEVKFNWYVDGVEVHNAKTKPREEQYNSTYRVVSVLTVLHQDWLNGKEYKCKVSNKALGAPIEKTISKAKGQPRRPQVYTLPPSREEMTKNQVSLTCLVKGFYPSDIAVEWESNGQPENNYKTTPPVLDSDGSFFLYSKLTVDKSRWQQGNVFSCSVMHGALHNHYTQKYLSLSPGK
light: SYVLTQPASASVSPGQTARITCSGDALPKQYAYWYQQKPGQAPVLVIFKDSERPSGVPERFSGSSSGTTVTLTISGAQAEDEADYYCQSVDNSGFYQVFGGGTQLTVLRTVAAPSVFIFPPSDEQLKSGTASVVCLLNNFYPREAKVQWKVDNALQSGNSQESVTEQDSKDSTYSLSSTLTLSKADYEKHKVYACEVTHQGLSSPVTKSFNRGEC
Turning to B7, the “IC50 of cytotoxicity (Annexin V, KOPT-K1 cells, 18 hours)” value in assay [8] is 442 nM Fv.

B8: clone 30 in the scFv-Fc format (Fc fusion)
chain: EVQLLETGGGLVQPGGSLRLSCAASGFTFSSSAMHWVRQAPGKGLEWVAAISYDGSDTYYADSVKGRFTISRDNAKNTLYLQMNSLRDEDTAVYYCARDQVLGSGSLDYWGQGTLVTVSSGILGSGGGGSGGGGSGGGGSNFMLTQPHSVSESPGKTVTISCTRSSGSIGSYYVQWYQQRPGSPPTTVIYEDDKRPSGVPDRFSGSIDSSSNSASLTISGLKTEDEADYYCQSYDSSHVVFGGGTKLTVLSGSSSSLEGCKPCICTVPEVSSVFIFPPKPKDVLTITLTPKVTCVVVDISKDDPEVQFSWFVDDVEVHTAQTQPREEQFNSTFRSVSELPIMHQDWLNGKEFKCRVNSAAFPAPIEKTISKTKGRPKAPQVYTIPPPKEQMAKDKVSLTCMITDFFPEDITVEWQWNGQPAENYKNTQPIMDTDGSYFVYSKLNVQKSNWEAGNTFTCSVLHEGLHNHHTEKSLSHSPGKGGGGLNDIFEAQKIEWHESRHHHHHH
notes: as for B5
As to B8, the binding result in [6] was “no binding (tested: 1 µM Fv)”; in [2], “binds”; in assay [3] it was “no binding (tested: 600 nM Fv)”; in assay [4], “no binding (tested: 600 nM Fv)”; in [7], “binds”.

The record behind these values is US20240190985A1 (NEW YORK UNIVERSITY, published 2024).
